We go through one sequence from patent US20230235304.

Numbering of substitutions follows the chain as printed.

Common to all, as to assay: cell_activity
Holding throughout (conditions): PAM 5'-GCTG-3'; HEK293T; averaged over AAVS1, VEGFA, EMX1 targets

Series [1] deals with T1, CRISPR nuclease variant D535G,L516R,I521R D535G,L516R,I521R (synthetic construct).
T1 sequence: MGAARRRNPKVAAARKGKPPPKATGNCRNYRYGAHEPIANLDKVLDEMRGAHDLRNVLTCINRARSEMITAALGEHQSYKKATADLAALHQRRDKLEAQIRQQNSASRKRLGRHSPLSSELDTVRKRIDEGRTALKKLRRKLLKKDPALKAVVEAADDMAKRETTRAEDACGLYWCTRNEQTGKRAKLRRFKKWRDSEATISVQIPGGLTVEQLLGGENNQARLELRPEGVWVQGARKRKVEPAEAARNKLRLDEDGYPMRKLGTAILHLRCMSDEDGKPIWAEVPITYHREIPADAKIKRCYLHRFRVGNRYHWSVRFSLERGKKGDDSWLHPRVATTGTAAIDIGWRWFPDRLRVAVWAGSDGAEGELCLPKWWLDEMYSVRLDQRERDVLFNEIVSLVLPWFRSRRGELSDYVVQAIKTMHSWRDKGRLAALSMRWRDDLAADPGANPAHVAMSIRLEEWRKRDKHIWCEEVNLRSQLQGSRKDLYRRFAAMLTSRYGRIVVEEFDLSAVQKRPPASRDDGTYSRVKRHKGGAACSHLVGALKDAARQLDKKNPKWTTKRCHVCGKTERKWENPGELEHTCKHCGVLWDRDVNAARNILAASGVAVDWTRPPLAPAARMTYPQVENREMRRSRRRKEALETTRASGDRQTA

For series [2], the system named is T2, CRISPR nuclease variant L580G,L385G L580G,L385G (synthetic construct).
T2 sequence: T1 sequence with L385G, R516L, R521I, G535D, L580G

Series [3] deals with T3, CRISPR nuclease variant Q514G Q514G (synthetic construct).
T3 sequence: T1 sequence with Q514G, R516L, R521I, G535D

The test system of series [4] is T4, CRISPR nuclease variant S78K,E198R,R354G S78K,E198R,R354G (synthetic construct).
T4 sequence: T1 sequence with S78K, E198R, R354G, R516L, R521I, G535D

Turning to “GGUCCCAUCGGAACGGGUUGUGGUUCCGACGGAGGGAUACAUUGGUGGGG / GGAGGGATACATTGGTGGGG / CCCCACCAATGTATCCCTCC [AAVS1 crRNA (Table 5) ; AAVS1 target (Table 5)]”, the binding signal (fold indels vs WT) was 3.59 in series [1], 3.9 in series [2], 3.53 in series [3] and 4.14 in series [4].
